Data on one variant can be found in IntAct's records for PubMed 16834335.

Sequences and labels used below:
B1: Modulator of FtsH protease HflC (Escherichia coli (strain K12)), P0ABC3 (parent)
chain: MRKSVIAIIIIVLVVLYMSVFVVKEGERGITLRFGKVLRDDDNKPLVYEPGLHFKIPFIETVKMLDARIQTMDNQADRFVTKEKKDLIVDSYIKWRISDFSRYYLATGGGDISQAEVLLKRKFSDRLRSEIGRLDVKDIVTDSRGRLTLEVRDALNSGSAGTEDEVTTPAADNAIAEAAERVTAETKGKVPVINPNSMAALGIEVVDVRIKQINLPTEVSEAIYNRMRAEREAVARRHRSQGQEEAEKLRATADYEVTRTLAEAERQGRIMRGEGDAEAAKLFADAFSKDPDFYAFIRSLRAYENSFSGNQDVMVMSPDSDFFRYMKTPTSATR
partner: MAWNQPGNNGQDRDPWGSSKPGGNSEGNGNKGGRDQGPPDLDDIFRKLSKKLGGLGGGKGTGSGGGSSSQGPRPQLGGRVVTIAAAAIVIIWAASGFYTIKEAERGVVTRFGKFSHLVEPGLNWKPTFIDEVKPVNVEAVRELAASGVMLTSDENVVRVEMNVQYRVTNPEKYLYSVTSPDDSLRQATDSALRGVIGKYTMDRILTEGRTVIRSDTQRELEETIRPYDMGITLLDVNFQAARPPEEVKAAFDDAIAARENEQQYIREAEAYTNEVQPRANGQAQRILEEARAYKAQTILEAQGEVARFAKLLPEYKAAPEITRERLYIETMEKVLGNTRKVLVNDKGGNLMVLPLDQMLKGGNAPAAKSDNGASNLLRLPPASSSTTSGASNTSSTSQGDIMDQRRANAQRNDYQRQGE

Variants of B1 are the subject of the test. As to conditions: with hflk_ecoli hflK.
For the variant A286I, the “effect of a mutation on the interaction” value is reported as “decreasing interaction strength”.
